Laboratory results taken from patent US20040241845A1 (UNIVERSIT DE MONTR AL, published 2004).

How the values were obtained:
[1] = biological target: T1, Staufen/YFP fusion protein (human, UniProt O95793 82-577); assay: BRET in live 293T cells
T1 construct: BRET acceptor, expressed in live 293T cells; also called pCMV-Staufen/YFP; not shown: YFP of pCMV-GFP-Topaz (red-shifted GFP variant of Aequorea victoria GFP); its substitutions and the junction are not pri
T1 sequence: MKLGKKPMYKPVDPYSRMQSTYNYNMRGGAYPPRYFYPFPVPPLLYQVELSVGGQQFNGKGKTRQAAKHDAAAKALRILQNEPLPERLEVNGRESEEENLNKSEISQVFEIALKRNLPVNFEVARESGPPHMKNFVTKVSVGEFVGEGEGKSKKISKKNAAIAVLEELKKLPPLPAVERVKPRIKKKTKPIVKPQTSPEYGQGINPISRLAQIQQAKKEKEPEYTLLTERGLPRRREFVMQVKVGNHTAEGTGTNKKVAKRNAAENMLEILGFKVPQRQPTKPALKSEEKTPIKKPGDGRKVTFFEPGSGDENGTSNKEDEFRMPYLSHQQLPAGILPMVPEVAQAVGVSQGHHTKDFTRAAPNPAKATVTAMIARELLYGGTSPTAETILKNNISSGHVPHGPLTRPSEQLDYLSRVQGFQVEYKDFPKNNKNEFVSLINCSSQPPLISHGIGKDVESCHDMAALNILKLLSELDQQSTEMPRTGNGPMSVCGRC

[2] = biological target: HIV-1 CA (processed form of pr55Gag, CAp24/p25) (HIV-1 (pNL4-3), UniProt P12493 133-363); assay: co-immunoprecipitation with anti-HA
[3] = biological target: T2, HIV-1 pr55Gag (Gag precursor expressed from pNL4-3 proviruses) (HIV-1 (pNL4-3), UniProt P12493 2-500); assay: co-immunoprecipitation with anti-CA, Western with anti-HA
T2 construct: In lysates of transfected 293T cells; The anti-CA antibody also pulls down pr41Gag and CAp24/p25

B1: p2-p1/Rluc (other)
chain: AEAMSQVTNSATIMMQRGNFRNQRKIVKCFNCGKEGHTARNCRAPRKKGCWKCGKEGHQMKDCTERQANFLGKIWPSYKGRPGNF
notes: domain: p2-p1; not shown: Renilla reniformis luciferase (Rluc) of pRluc-N1(h)
B1: binds [1].

B2: NC/Rluc (other)
chain: MQRGNFRNQRKIVKCFNCGKEGHTARNCRAPRKKGCWKCGKEGHQMKDCTERQAN
notes: domain: NC; not shown: Renilla reniformis luciferase (Rluc) of pRluc-N1(h)
B2: binds [1].

B3: MA/Rluc (other)
chain: MGARASVLSGGELDRWEKIRLRPGGKKKYKLKHIVWASRELERFAVNPGLLETSEGCRQILGQLQPSLQTGSEELRSLYNTVATLYCVHQRIEIKDTKEALDKIEEEQNKSKKKAQQAAADTGHSNQVSQNY
notes: domain: MA; not shown: Renilla reniformis luciferase (Rluc) of pRluc-N1(h)
B3: no binding [1].

B4: p6/Rluc (other)
chain: LQSRPEPTAPPEESFRSGVETTTPPQKQEPIDKELYPLTSLRSLFGNDPSSQ
notes: domain: p6; not shown: Renilla reniformis luciferase (Rluc) of pRluc-N1(h)
B4: no binding [1].

B5: Staufen-HA (wild-type human Staufen, short isoform, HA-tagged) (other)
chain: MKLGKKPMYKPVDPYSRMQSTYNYNMRGGAYPPRYFYPFPVPPLLYQVELSVGGQQFNGKGKTRQAAKHDAAAKALRILQNEPLPERLEVNGRESEEENLNKSEISQVFEIALKRNLPVNFEVARESGPPHMKNFVTKVSVGEFVGEGEGKSKKISKKNAAIAVLEELKKLPPLPAVERVKPRIKKKTKPIVKPQTSPEYGQGINPISRLAQIQQAKKEKEPEYTLLTERGLPRRREFVMQVKVGNHTAEGTGTNKKVAKRNAAENMLEILGFKVPQRQPTKPALKSEEKTPIKKPGDGRKVTFFEPGSGDENGTSNKEDEFRMPYLSHQQLPAGILPMVPEVAQAVGVSQGHHTKDFTRAAPNPAKATVTAMIARELLYGGTSPTAETILKNNISSGHVPHGPLTRPSEQLDYLSRVQGFQVEYKDFPKNNKNEFVSLINCSSQPPLISHGIGKDVESCHDMAALNILKLLSELDQQSTEMPRTGNGPMSVCGRC
notes: Expressed in 293T cells from the pNL4-3/Staufen-HA chimeric provirus (in the nef reading frame) or from a Staufen-HA expressor (pcDNA3-RSV-hStau-HA); Runs as a 60 kDa band; also called hStau/HA; HA-hStau
B5: no binding [2].

B6: Staufen F135A-HA (full-length Staufen with a point mutation in dsRBD3) (other)
chain: MKLGKKPMYKPVDPYSRMQSTYNYNMRGGAYPPRYFYPFPVPPLLYQVELSVGGQQFNGKGKTRQAAKHDAAAKALRILQNEPLPERLEVNGRESEEENLNKSEISQVFEIALKRNLPVNFEVARESGPPHMKNAVTKVSVGEFVGEGEGKSKKISKKNAAIAVLEELKKLPPLPAVERVKPRIKKKTKPIVKPQTSPEYGQGINPISRLAQIQQAKKEKEPEYTLLTERGLPRRREFVMQVKVGNHTAEGTGTNKKVAKRNAAENMLEILGFKVPQRQPTKPALKSEEKTPIKKPGDGRKVTFFEPGSGDENGTSNKEDEFRMPYLSHQQLPAGILPMVPEVAQAVGVSQGHHTKDFTRAAPNPAKATVTAMIARELLYGGTSPTAETILKNNISSGHVPHGPLTRPSEQLDYLSRVQGFQVEYKDFPKNNKNEFVSLINCSSQPPLISHGIGKDVESCHDMAALNILKLLSELDQQSTEMPRTGNGPMSVCGRC
notes: Expressed from the pNL4-3/StaufenF135A-HA chimeric provirus
B6: no binding [3].
